The text below walks through data of patent US20150005237A1, “PEPTIDIC INHIBITOR OF SIGNAL TRANSMISSION FROM G-ALPHA-S TO G-ALPHA-I-COUPLED RECEPTOR CASCADES” (UNIVERSITÄT INNSBRUCK, priority 2011, published 2015).

The target in this experiment is T1, recombinant GST-Gαi3 (Rattus norvegicus, UniProt P08753).
T1 construct: A fusion protein was constructed consisting of full-length Gαi3 and gluthatione S-transferase (GST); made in house; host or cells: Escherichia coli BL21
Kind of experiment: SPOT peptide dot blot overlay with recombinant GST-Gαi3. Type of experiment: binding. As to conditions: spotted 25 mers overlaid with GST-Gαi3 10 μg/ml. An excerpt: FIG. 4 Dot blot analysis of conserved amino acids (core element of SEQ ID No. 1, 2, extended sequences SEQ ID No. 4 and 5) in the Reggai sequence. Spotted peptides containing the Reggai sequence (25 mers) of RIIβ (Reg) (SEQ ID No. 7), its mutant functional variant (SEQ ID No. 8) and non-functional peptides not containing the Reggai core element of SEQ ID No. 1 variant (SEQ ID No. 9 to 15) (exchanged amino acids are underlined) were overlaid with recombinant GST-Gαi3. The box indicates the Reggai sequence. Densitometric analysis of the average of two independent dot blot experiments is shown as bar graph. […] SEQ ID No. 9 to 15 in FIG. 4 (2nd to 7th and 9th sequence) are non-inventive comparative peptides.
Overlapping peptides either of the wild type PKA regulatory subunit RIIβ (accession number: NP_002727) or peptides containing substitutions of conserved amino acids in the Reggai sequence were SPOT-synthesized (Synthetic peptide arrays on membrane supports) on distinct coordinates of a cellulose membrane (shown in FIG. 1c; starting from the N-terminus of RegIIβ with amino acid 1-25 [coordinate A1], amino acid 6-30 [coordinate A2], etc.). […] Interactions were detected with rabbit anti-GST and secondary horseradish peroxidase antibodies by a procedure identical to immunoblotting (IB), (see Stefan et al., J. Am. Soc. Nephrol. 18, 199-212 (2007)). […]

T1 sequence (P08753 whole entry, the tested form may be a part): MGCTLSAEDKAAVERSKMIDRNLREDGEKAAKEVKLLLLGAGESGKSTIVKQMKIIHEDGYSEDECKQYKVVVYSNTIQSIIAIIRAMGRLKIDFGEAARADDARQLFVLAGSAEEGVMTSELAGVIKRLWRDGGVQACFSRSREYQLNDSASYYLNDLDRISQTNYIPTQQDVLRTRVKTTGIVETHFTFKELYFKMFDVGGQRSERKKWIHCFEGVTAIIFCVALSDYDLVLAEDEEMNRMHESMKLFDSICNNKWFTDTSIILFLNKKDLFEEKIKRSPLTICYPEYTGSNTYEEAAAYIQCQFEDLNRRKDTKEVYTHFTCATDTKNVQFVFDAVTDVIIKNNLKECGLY

With “QGASADSFFIVESGE (listed as Homo sapiens) [SEQ ID No. 8]”, the “binding of spotted peptide to recombinant GST-Gαi3 (dot blot)” value is listed as “functional”.
